Key:
Kv1.2 = biological target: T1, Kv1.2 (Homo sapiens, UniProt P16389); assay: cell-based; format: cell-based; conditions: 100% = no change, <100% = inhibition
T1 construct: host or cells: HEK293 or CHO
In short: (§1)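 Transfected HEK293 or CHO cells were exposed for at least 5 min to peptides at 200 nM and 20 μM final, tested in duplicate, in HEPES-buffered physiological saline. Activation was taken as peptide-plus-agonist current over control current ×100, and inhibition as 1 minus that ratio ×100. Each channel's control was its own reference compound.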

Kv1.3 = biological target: T2, Kv1.3 (Homo sapiens, UniProt P22001); assay: cell-based; format: cell-based; conditions: 100% = no change, <100% = inhibition
T2 construct: host or cells: HEK293 or CHO
T2 sequence (P22001 whole entry): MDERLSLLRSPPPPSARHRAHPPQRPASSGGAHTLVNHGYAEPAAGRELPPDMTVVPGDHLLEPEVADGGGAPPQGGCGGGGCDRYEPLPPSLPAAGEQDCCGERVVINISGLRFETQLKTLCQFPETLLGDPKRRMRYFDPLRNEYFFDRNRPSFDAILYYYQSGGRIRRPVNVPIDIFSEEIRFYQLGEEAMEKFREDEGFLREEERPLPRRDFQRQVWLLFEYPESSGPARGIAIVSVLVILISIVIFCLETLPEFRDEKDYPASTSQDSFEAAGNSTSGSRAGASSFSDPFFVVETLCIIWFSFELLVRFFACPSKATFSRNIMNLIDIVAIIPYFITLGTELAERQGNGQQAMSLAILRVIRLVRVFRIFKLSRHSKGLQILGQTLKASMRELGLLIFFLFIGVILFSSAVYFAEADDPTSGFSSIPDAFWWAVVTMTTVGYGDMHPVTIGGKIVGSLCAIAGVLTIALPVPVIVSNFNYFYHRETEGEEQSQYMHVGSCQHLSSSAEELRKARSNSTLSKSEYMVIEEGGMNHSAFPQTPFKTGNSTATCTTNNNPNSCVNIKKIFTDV
In short: as §1

Kv1.1 = biological target: T3, Kv1.1 (Homo sapiens, UniProt Q09470); assay: cell-based; format: cell-based; conditions: 100% = no change, <100% = inhibition
T3 construct: host or cells: HEK293 or CHO
T3 sequence (Q09470 whole entry): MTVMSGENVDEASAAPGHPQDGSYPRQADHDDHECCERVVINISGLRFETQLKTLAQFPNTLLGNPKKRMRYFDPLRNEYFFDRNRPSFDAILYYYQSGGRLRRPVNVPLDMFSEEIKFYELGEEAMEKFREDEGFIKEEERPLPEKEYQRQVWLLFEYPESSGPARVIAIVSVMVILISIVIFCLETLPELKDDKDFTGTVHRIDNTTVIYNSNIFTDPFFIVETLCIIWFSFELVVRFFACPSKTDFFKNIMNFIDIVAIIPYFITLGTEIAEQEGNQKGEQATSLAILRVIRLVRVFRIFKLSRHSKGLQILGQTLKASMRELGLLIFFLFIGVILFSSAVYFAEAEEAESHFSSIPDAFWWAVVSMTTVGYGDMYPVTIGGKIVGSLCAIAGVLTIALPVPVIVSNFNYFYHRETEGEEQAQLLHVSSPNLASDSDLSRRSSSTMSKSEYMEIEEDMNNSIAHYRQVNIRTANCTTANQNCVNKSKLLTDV
In short: as §1

Nav1.7 = biological target: T4, Nav1.7 (Homo sapiens, UniProt Q15858); assay: cell-based; format: cell-based; conditions: 100% = no change; for Activity of Nav1.7 with peptide, expressed as a percentage of the reference compound: peptide at 0.2 μM; for Activity of Nav1.7 with peptide (percentage of the reference compound): peptide at 20 μM
T4 construct: host or cells: HEK293 or CHO
T4 sequence (Q15858 whole entry): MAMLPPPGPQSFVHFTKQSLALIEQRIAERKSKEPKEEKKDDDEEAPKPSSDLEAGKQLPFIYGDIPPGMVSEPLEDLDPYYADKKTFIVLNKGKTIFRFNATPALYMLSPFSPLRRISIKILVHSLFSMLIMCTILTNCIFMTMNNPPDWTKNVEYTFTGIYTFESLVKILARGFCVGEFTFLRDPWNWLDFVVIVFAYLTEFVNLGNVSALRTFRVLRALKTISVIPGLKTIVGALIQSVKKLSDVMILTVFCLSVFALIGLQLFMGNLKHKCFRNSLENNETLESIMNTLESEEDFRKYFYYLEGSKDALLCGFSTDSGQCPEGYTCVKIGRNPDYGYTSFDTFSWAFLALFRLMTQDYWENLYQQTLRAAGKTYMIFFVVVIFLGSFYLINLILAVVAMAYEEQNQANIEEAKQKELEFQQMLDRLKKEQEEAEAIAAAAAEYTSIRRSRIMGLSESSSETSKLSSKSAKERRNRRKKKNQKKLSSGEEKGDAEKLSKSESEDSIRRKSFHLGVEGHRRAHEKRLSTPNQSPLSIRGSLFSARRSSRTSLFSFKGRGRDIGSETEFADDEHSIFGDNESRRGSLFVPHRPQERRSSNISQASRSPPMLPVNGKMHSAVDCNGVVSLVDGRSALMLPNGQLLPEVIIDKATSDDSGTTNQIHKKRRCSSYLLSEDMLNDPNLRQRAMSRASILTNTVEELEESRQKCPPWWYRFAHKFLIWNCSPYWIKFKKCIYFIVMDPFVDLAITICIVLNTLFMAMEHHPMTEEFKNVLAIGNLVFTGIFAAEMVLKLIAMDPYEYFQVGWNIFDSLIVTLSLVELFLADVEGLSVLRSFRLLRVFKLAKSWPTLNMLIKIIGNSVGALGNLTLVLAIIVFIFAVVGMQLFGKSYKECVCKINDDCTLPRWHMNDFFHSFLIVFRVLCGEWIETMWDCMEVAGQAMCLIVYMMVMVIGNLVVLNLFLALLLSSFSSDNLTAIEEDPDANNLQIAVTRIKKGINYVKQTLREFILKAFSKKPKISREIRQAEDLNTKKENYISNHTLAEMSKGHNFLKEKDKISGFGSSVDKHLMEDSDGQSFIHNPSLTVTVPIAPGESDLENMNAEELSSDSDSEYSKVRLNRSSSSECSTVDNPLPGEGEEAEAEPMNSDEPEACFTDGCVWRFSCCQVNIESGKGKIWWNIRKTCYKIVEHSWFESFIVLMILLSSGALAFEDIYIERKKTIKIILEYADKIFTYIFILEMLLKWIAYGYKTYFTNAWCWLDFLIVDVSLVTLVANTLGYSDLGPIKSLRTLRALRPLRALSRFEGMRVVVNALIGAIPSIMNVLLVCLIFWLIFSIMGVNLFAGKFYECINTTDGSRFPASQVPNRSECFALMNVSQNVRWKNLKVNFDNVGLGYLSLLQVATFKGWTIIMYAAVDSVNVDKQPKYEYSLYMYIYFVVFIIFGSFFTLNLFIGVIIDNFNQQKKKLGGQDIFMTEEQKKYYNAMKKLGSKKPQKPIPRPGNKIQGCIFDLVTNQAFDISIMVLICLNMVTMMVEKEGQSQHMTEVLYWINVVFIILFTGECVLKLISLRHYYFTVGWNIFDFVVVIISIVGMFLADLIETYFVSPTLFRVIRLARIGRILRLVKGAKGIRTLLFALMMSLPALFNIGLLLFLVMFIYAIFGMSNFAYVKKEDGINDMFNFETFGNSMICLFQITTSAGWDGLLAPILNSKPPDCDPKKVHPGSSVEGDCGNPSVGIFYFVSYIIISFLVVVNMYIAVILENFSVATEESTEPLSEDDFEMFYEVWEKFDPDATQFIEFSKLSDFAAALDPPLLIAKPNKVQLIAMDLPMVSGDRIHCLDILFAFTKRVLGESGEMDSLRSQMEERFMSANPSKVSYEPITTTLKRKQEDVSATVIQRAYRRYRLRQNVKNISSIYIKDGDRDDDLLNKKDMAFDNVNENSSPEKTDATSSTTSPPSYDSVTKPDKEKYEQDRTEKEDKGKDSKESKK

NR2B = biological target: T5, NR2B (Homo sapiens, UniProt Q13224); assay: Ion channel panel (IonWorks Barracuda): NR2B; format: cell-based; conditions: 100% = no change, <100% = inhibition
T5 construct: host or cells: HEK293 or CHO
In short: as §1

Kv2.1 = biological target: T6, Kv2.1 (Homo sapiens, UniProt Q14721); assay: cell-based; conditions: 100% = no change, <100% = inhibition
T6 construct: host or cells: HEK293 or CHO
In short: as §1

Cav2.2 = biological target: T7, Cav2.2 (Homo sapiens, UniProt Q00975); assay: cell-based; conditions: 100% = no change, <100% = inhibition
T7 construct: host or cells: HEK293 or CHO
In short: as §1

Cav2.1 = biological target: T8, Cav2.1 (Homo sapiens, UniProt O00555); assay: cell-based; conditions: 100% = no change, <100% = inhibition
T8 construct: host or cells: HEK293 or CHO
In short: as §1

α3β4 = biological target: T9, α3β4 (Homo sapiens, UniProt P30926+P32297); assay: Ion channel panel (IonWorks Barracuda): α3β4; format: cell-based; conditions: 100% = no change, <100% = inhibition
T9 construct: host or cells: HEK293 or CHO
In short: as §1

GABA = assay: Ion channel panel (IonWorks Barracuda): GABA; format: cell-based; conditions: 100% = no change, <100% = inhibition
In short: as §1

hERG = hERG (Homo sapiens, UniProt Q12809); assay: in vitro; conditions: 100% = no change, <100% = inhibition
In short: as §1

Nav1.5 = Nav1.5 (Homo sapiens, UniProt Q14524); assay: in vitro; conditions: 100% = no change; for Activity of Nav1.5 with peptide, expressed as a percentage of the reference compound: peptide at 0.2 μM; for Activity of Nav1.5 with peptide (percentage of the reference compound): peptide at 20 μM
Sequence of Nav1.5 (Q14524 whole entry): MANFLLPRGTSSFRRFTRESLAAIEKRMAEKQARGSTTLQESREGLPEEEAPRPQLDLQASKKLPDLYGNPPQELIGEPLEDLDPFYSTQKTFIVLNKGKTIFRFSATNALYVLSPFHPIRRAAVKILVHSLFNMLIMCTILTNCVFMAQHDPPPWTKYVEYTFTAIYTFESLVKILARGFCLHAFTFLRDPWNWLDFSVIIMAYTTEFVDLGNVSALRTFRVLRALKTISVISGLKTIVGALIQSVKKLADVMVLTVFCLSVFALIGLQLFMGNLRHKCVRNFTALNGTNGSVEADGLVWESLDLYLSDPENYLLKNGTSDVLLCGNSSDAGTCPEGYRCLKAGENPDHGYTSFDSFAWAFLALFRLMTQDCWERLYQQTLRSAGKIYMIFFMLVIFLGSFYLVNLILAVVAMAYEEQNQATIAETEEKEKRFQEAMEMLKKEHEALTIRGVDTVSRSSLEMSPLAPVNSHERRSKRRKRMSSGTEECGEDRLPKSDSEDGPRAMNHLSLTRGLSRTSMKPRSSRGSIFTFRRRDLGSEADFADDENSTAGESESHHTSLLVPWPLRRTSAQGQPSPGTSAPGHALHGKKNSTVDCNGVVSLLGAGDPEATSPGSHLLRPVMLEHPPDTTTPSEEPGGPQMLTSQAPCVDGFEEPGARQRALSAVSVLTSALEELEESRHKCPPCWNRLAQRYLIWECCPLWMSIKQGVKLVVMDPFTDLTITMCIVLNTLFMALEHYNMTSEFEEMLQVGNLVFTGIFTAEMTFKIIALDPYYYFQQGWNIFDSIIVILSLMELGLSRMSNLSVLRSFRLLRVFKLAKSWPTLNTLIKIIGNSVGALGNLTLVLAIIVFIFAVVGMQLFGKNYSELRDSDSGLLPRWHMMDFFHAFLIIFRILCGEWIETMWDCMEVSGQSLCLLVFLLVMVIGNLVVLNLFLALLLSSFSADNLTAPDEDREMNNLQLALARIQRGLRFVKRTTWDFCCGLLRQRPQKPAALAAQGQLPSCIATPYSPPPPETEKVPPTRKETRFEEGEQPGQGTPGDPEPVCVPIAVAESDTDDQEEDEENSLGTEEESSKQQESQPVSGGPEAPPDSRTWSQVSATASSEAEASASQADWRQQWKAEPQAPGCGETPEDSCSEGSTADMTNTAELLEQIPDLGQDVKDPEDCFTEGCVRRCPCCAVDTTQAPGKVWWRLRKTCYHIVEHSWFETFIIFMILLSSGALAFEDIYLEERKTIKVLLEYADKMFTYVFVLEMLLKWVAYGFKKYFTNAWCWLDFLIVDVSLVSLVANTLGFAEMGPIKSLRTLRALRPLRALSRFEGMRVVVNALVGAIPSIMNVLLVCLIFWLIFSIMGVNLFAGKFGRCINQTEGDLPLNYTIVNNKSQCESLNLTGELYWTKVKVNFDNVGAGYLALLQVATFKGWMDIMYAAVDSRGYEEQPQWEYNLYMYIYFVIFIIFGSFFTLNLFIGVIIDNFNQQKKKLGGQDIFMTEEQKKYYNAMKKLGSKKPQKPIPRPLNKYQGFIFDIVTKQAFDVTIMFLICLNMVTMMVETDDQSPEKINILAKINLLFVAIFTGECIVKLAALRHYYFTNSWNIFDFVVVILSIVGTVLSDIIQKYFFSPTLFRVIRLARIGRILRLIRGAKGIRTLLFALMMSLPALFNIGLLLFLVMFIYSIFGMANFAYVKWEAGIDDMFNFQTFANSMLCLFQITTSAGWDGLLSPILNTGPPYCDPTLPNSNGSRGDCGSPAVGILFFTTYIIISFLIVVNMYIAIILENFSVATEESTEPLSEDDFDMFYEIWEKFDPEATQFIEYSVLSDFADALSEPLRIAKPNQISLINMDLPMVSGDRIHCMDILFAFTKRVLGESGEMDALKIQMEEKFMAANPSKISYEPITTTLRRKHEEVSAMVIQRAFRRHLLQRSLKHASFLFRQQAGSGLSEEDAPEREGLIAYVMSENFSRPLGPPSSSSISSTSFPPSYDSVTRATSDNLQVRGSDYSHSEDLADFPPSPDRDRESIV
In short: as §1

TRPV1 = biological target: T10, TRPV1 (Homo sapiens, UniProt Q8NER1); assay: Ion channel panel (IonWorks Barracuda): TRPV1; format: cell-based; conditions: 100% = no change, <100% = inhibition
T10 construct: host or cells: HEK293 or CHO
In short: as §1

5HT3a = biological target: T11, 5HT3a (Homo sapiens, UniProt P46098); assay: Ion channel panel (IonWorks Barracuda): 5HT3a; format: cell-based
T11 construct: host or cells: HEK293 or CHO
T11 sequence (P46098 whole entry, looked up): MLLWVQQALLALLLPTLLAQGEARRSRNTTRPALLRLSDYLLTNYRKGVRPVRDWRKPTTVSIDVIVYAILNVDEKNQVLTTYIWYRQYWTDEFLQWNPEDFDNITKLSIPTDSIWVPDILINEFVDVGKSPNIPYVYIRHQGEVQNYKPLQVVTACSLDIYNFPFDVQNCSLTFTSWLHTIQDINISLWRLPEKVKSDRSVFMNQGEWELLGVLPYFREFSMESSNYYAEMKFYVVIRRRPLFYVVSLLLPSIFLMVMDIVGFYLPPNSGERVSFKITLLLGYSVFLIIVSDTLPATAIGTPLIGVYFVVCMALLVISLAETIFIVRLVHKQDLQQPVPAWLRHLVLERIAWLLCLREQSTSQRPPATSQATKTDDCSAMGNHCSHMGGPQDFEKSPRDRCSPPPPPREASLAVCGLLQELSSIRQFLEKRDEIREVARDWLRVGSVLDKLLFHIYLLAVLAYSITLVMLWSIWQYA
In short: as §1

TRPA1 = biological target: T12, TRPA1 (Homo sapiens, UniProt O75762); assay: Ion channel panel (IonWorks Barracuda): TRPA1; format: cell-based; conditions: 100% = no change, <100% = inhibition
T12 construct: host or cells: HEK293 or CHO
In short: as §1

Kir2.1 = biological target: T13, Kir2.1 (Homo sapiens, UniProt P63252); assay: Ion channel panel (IonWorks Barracuda): Kir2.1; format: cell-based; conditions: 100% = no change, <100% = inhibition
T13 construct: host or cells: HEK293 or CHO
In short: as §1

α4β2 = biological target: T14, α4β2 (Homo sapiens, UniProt P17787+P43681); assay: Ion channel panel (IonWorks Barracuda): α4β2; format: cell-based; conditions: 100% = no change, <100% = inhibition
T14 construct: host or cells: HEK293 or CHO
In short: as §1

NR2A = biological target: T15, NR2A (Homo sapiens, UniProt Q12879); assay: Ion channel panel (IonWorks Barracuda): NR2A; format: cell-based; conditions: 100% = no change, <100% = inhibition
T15 construct: host or cells: HEK293 or CHO
In short: as §1

[1] = first of two Nav1.7 columns (probably TP1)
[2] = second of two Nav1.7 columns (probably TP2)
[3] = first of two Nav1.5 columns (probably TP1)
[4] = second of two Nav1.5 columns (probably TP2)

## 32 (GSQDKCKKVYENYPVSKCQLANQCNYDCKLDKHARSGECFYDEKRNLQCICDYCEY) [compound 32]
Kv1.2; peptide at 0.2 μM
  Activity of Kv1.2 with peptide, expressed as a percentage of the reference compound: 89%
Kv1.2; peptide at 20 μM
  Activity of Kv1.2 with peptide (percentage of the reference compound): 112%
Kv1.3; peptide at 0.2 μM
  Activity of Kv1.3 with peptide, expressed as a percentage of the reference compound: 98%
Kv1.3; peptide at 20 μM
  Activity of Kv1.3 with peptide (percentage of the reference compound): 98%
Kv1.1; peptide at 0.2 μM
  Activity of Kv1.1 with peptide, expressed as a percentage of the reference compound: 76%
Kv1.1; peptide at 20 μM
  Activity of Kv1.1 with peptide (percentage of the reference compound): 114%
Nav1.7; [1]
  Activity of Nav1.7 with peptide, expressed as a percentage of the reference compound: 96%
  Activity of Nav1.7 with peptide (percentage of the reference compound): 87%
Nav1.7; [2]
  Activity of Nav1.7 with peptide, expressed as a percentage of the reference compound: 97%
  Activity of Nav1.7 with peptide (percentage of the reference compound): 61%
NR2B; peptide at 0.2 μM
  Activity of NR2B with peptide, expressed as a percentage of the reference compound: 76%
NR2B; peptide at 20 μM
  Activity of NR2B with peptide (percentage of the reference compound): 106%
Kv2.1; peptide at 0.2 μM
  Activity of Kv2.1 with peptide, expressed as a percentage of the reference compound: 92%
Kv2.1; peptide at 20 μM
  Activity of Kv2.1 with peptide (percentage of the reference compound): 93%
Cav2.2; peptide at 0.2 μM
  Activity of Cav2.2 with peptide, expressed as a percentage of the reference compound: 102%
Cav2.2; peptide at 20 μM
  Activity of Cav2.2 with peptide (percentage of the reference compound): 101%
Cav2.1; peptide at 0.2 μM
  Activity of Cav2.1 with peptide, expressed as a percentage of the reference compound: 98%
Cav2.1; peptide at 20 μM
  Activity of Cav2.1 with peptide (percentage of the reference compound): 92%
α3β4; peptide at 0.2 μM
  Activity of a3b4 with peptide, expressed as a percentage of the reference compound: 100%
α3β4; peptide at 20 μM
  Activity of a3b4 with peptide (percentage of the reference compound): 96%
GABA; peptide at 0.2 μM
  Activity of GABA with peptide, expressed as a percentage of the reference compound: 98%
GABA; peptide at 20 μM
  Activity of GABA with peptide (percentage of the reference compound): 105%
hERG; peptide at 0.2 μM
  Activity of hERG with peptide, expressed as a percentage of the reference compound: 90%
hERG; peptide at 20 μM
  Activity of hERG with peptide (percentage of the reference compound): 65%
Nav1.5; [3]
  Activity of Nav1.5 with peptide, expressed as a percentage of the reference compound: 108%
  Activity of Nav1.5 with peptide (percentage of the reference compound): 90%
Nav1.5; [4]
  Activity of Nav1.5 with peptide, expressed as a percentage of the reference compound: 101%
  Activity of Nav1.5 with peptide (percentage of the reference compound): 90%
TRPV1; peptide at 0.2 μM
  Activity of TRPV1 with peptide, expressed as a percentage of the reference compound: 99%
TRPV1; peptide at 20 μM
  Activity of TRPV1 with peptide (percentage of the reference compound): 84%
5HT3a
  Activity of 5HT3a with peptide (percentage of the reference compound): 105%
  Activity of 5HT3a with peptide, expressed as a percentage of the reference compound: 95%
TRPA1; peptide at 0.2 μM
  Activity of TRPA1 with peptide, expressed as a percentage of the reference compound: 130%
TRPA1; peptide at 20 μM
  Activity of TRPA1 with peptide (percentage of the reference compound): 108%
Kir2.1; peptide at 0.2 μM
  Activity of Kir2.1 with peptide, expressed as a percentage of the reference compound: 95%
Kir2.1; peptide at 20 μM
  Activity of Kir2.1 with peptide (percentage of the reference compound): 79%
α4β2; peptide at 0.2 μM
  Activity of a4b2 with peptide, expressed as a percentage of the reference compound: 81%
α4β2; peptide at 20 μM
  Activity of a4b2 with peptide (percentage of the reference compound): 86%
NR2A; peptide at 0.2 μM
  Activity of NR2A with peptide, expressed as a percentage of the reference compound: 95%
NR2A; peptide at 20 μM
  Activity of NR2A with peptide (percentage of the reference compound): 110%
